Assay: soluble on expression in E. coli; label from the status in PepcDB or PDB records

Sequence | soluble on expression in E. coli
MSLKNLQCELDWERRFDGMQQHLGQHLLSGCFYDLFGANTCGFHLGKEISTVDIVGFLDEKTIREAEKEANRLIFENLEVKSYAPSKKELKKVKTRRALPKTDEEIRIVEIVGLDLNACCGVHPRNTRDLQVIKIRRWEKHKNATRIEYVAGNRAVSEGHHHHHH | not soluble
MSLKPTKIFAFGGLEEVGKNMYGIEYDDELIIVDCGIKFSSVELLGIDGIVPNFAYAKANQHKIKALVITHGHEDHIGGIPYLLREVSVPVIYAPLMATKLIEKKLHEHHNLNQYKIVSYNDKSEFSTKHFKIDFYRVCHSIPDAFGVCVQTPNGNIVESGDYRFDFNAGNEELDIHKVVEISRRGIDLFMTETTNAEIPGFSSSEKEIYDNIKNIIKNANGRVILSTFASNVTRISEVIEIAIQHGRKICLLGKSMDNNVSISRDVGYINLKDDDIVESRYVEQHPDNEIMIFCTGSQGEELAALNMLASGRHPWIQLKKTDSIIMSSNPIPGNYAAVERLLNELSKEEGISIYENSPTLKLHASGHATMQEIQLMLSLLRPKYLFPIHGEYKMFTSLKRIAKKCGFDPENVALHKNGQIVYLIDREGHHHHHH | soluble
MSLKQADELRFNEDGLIPAIVQDAASKEVLTLAYMNKESYEKTLETKETWFYSRSRQALWHKGETSGNTQAVKGIRYDCDQDALLVLVEPSGPACHTGSYSCFTKEQTEEQAADRFGIMNELERVIAERQAEMPEGAYTTYLFREGVDKILKKVGEEASEVIIAAKNRDHEELKWEAADLLYHLLVLLREQSLPLDDVLDVLKKRHSEIEEEGHHHHHH | soluble
MSLKQGLQLRLSQQLAMTPQLQQAIRLLQLSTLELQQELQQALESNPLLEQIDTHEEIDTRETQDSETLDTADALEQKEMPEELPLDASWDTIYTAGTPSGTSGDYIDDELPVYQGETTQTLQDYLMWQVELTPFSDTDRAIATSIVDAVDETGYLTVPLEDILESIGDEEIDIDEVEAVLKRIQRFDPVGVAAKDLRDCLLIQLSQFDKTTPWLEEARLIISDHLDLLANHDFRTLMRVTRLKEDVLKEAVNLIQSLDPRPGQSIQTGEPEYVIPDVLVRKHNGHWTVELNSDSIPRLQINQHYASMCNNARNDGDSQFIRSNLQDAKWLIKSLESRNDTLLRVSRCIVEQQQAFFEQGEEYMKPMVLADIAQAVEMHESTISRVTTQKYLHSPRGIFELKYFFSSHVNTEGGGEASSTAIRALVKKLIAAENPAKPLSDSKLTSLLSEQGIMVARRTVAKYRESLSIPPSNQRKQLVEGHHHHHH | soluble
MSLKQLPKREELPENLTWDLTKIFSSDQEFDEKYLELSEELKQSEKHKGTLDQGASQFLNAIEFVLRVYRQTEVIYVYAHLKNDQDTGNTDYQALYARASSLFSKVSEAVSWFEPEILQLSDDQIWQYFKEEPKLEVYRHYIQQIVDNRAHVLSAEQESLLAGAGEIFDASSDTFAVLNNADLVFPTIEGENGEIVQLSHGVYGQLLESTDRRVREAAFKGLYSVYEQFRNTFASTLGTHIKGHNFKAKVRNYSSAREASLSNNHIPESVYDTLVDVVNKHLPLLHRYMELRKRLLEVEKLHMYDLYTPVLGEAPITFTYEEAKEKALEALKPMGEEYMAIVEKAFSERWIDVVENKGKRSGAYSSGSYDTNPYILLNWHDTLDQLFTLVHEMGHSVHSYFTRSNQPYVYGDYSIFLAEIASTTNENILTEYLLETEKDPRVRAYVLNHYLDGFKGTVFRQTQFAEFEHFMHTEDEKGVPLTSEYLSDSYGKLNAKYYGPAVEEDPEIKFEWSRIPHFYYNYYVFQYSTGFSAASALAKKILNQEPEALENYLAYLKAGNSDYPVEVMKKAGVDMTQAAYIEDAMSMFEQRLNELEELIDREGHHHHHH | soluble
MSLKRIVVANDLVGVGKVALSASIPLMASCLLEQVLLPTCLLSSHTGGGQNPVKHTTSSILDVFLTDWDNKRIKFDGIFIGYFTTTRDGQKLLEWLSRKQLPLILDPIMADNGKLYQGFSQKHIEIMIKLTQKAELVLPNISEACLLTQTAYLAKNYDEEDIRQVARKLAKLGPKQVVISGISFEEGSIGFAYYQSDSDQLTFHFGKQFPYHFYGTGDIASAIITAGFYYQLPLTQILDLVVSFLEKVLQNTLTLKRDLILGVAYESHLNYLTKSFKKLLEEKNVISKISEGHHHHHH | soluble
MSLKRSSICYRASKPLIASLVMSVWNAVHLSRRFAALPQAFYTPVHPQPLQNVRWGMWNSRLAQQFGLPEAPNDELLLSLSGQQLPADFSPVAMKYAGHQFGVYNPDLGDGRGLLLAEMATKQGEVFDIHLKGAGLTPYSRMGDGRAVLRSSLREYLCSEAMAGLGIATTRALALMSSETPVYREREERGALLVRLAHTHVRFGHFEHFFYTDQHANLKLLADKVIEWHFPDCVQTSKPYAAWFSQVVERTALMIAQWQAYGFNHGVMNTDNMSILGETFDYGPFAFLDDYDPNFICNHSDYQGRYAFDQQPRIGLWNLSALAHALSPLIDKDDLEAALGSYSERLNLHFSRLMRAKLGLATQQEGDGELFADFFALLANNHTDYTRFLRELSCLDRQGNEAVIDLVLDREAAKTWLTRYLERAARELGQEGRPISTRERCQAMRQVNPKYILRNYLAQQAIEFAERGDFEEMQRLATVLASPYAEHPEFERYAKLPPEWGKKLEISCSSEGGSHHHHHH | soluble
MSLKRTAEEIKQEVKSLSQQALDAVKKHTHSPEGVKELLNFMSRFPERSFRNQLLIEEQFPGATACLGRAALKKEGIYIKKGEQGNKIFVRKTVKGFYEKGRGFVRETEATPEDKKRIKSGQIEVIKKPYYTIEKVFDITQTQLKPEDYPKIFPNRVFDFQLDAKGQSELQAGIQAVANNIGIQIRDMTESEEGHHHHHH | soluble
MSLKSIAKAQNDFTIFKFGDSEIRVINKCGEPWFVAKDVCDALALTNSRKALTALDDDEKGVTLSYTLGGEQNLSIVSESGMYTLVLRCRDAVNKGSVPHKFRKWVTAEVLPSIRKHGEYVKGKKTTVEERTPLRDAVNMLVGKKGLRNDDAYNMVHQRFGIDSIDELSIEQIPLAVEYIHRVVLEGEFIGKQEKSTNELSAKEANSLVWLWDYANRSQALFRELYPALKQIQSNYSGRCYDYGHEFSYVIGMARDVLINHTRDVDINEPDGPTNLSAWMRLKNKELPPSPHHYEGHHHHHH | not soluble
MSLKSTDIKIVEAKFSTEEVPFRTPLKFGGRVMDSSVLLNVEVIVETRNGKQGIGIGSMPAGNIWAWPSAVVSPEDSLKAMIEFLKEAVEIANICPEVAHPIDLMYHISAEYHFMAKKLSKRLGLAEEIPELAQLVASSPLDAAIHDGFGRANHINSYNGLSAEYMSHDLTEYLDDQFKGEYLDQYTLRDPKPTLPLYHLVGALDPITEADISERVDDGLPETLGEWIKADGLTHLKIKLSGDNMDWDISRVIAVENEAVKAQGERGQDKWVYSLDFNEKCENVDYVLDFLNKIREQTPAAFDRVQYIEQPTNRDLKANPENKMHEAAKIKPVVIDESLVDYESLLLSRELGYSGVALKACKGQTESLFLGAAAQKFDMFLCVQDLTCCGYSFLHSASLAARIPSIAAIEGNGRQYCPGPNKKWKRSYPGMFNITDGTVKTSELNGDGLGFEGHHHHHH | soluble
MSLKTFTDRWRQLEWDDIRLRINGKTAADVERALNAAHLSRDDLMALLSPAAADYLEPIAQRAQRLTRQRFGNTVSFYVPLYLSNLCANDCTYCGFSMSNRIKRKTLDEVDIQRECDAIRKLGFEHLLLVTGEHQAKVGMDYFRRHLPTIRRQFSSLQMEVQPLSQENYAELKTLGIDGVMVYQETYHEAIYAQHHLKGKKQDFFWRLETPDRLGRAGIDKIGLGALIGLSDNWRVDCYMVAEHLLWMQKHYWQSRYSVSFPRLRPCTGGVEPASVMDEKQLVQTICAFRLLAPEIELSLSTRESPWFRDHVIPLAINNVSAFSKTQPGGYADDHPELEQFSPHDARRPETVASALSAQGLQPVWKDWDSWLGRASQTREGHHHHHH | not soluble
MSLKTKFGKCIYISPSGYKVYQNLLYRWLTLGSEAWQTVINRYIPRRPGLHYLQILTLMARKFPNDCCLLGLGGAGIAHLLGAQKTIRSIVAVESSEEVIQIAKKFFMTDLIPHFTITHQNARDFVRENKKTFQHMLLDLYDATHFPDECHSMDFFIHCKKQLTDDGFLAVNLANSQEQWALVQLIKKQFPSNIIIPIKKCANIVVIASKNDNKDLFIKQVRNTNEIKKITWVKDWGYVAEYEGHHHHHH | not soluble
MSLKTPAREIITDYAQAHFRYFRTADGTVYAQRNGHPVARPIRSQGTTGSHRQELMVGLFKDGIGVFNGTAMKEALDLIEALALTEDVQPVHIRVAPGFDGATWLDLGRDDGRSVRIHPTGWDIAIPDPREVCWRRTQLTGELPVPIKDTDGKGIDLLLRLCNFATAETECLAIAWLIGCLGPSVPVPAPFLTGPQGAGKSTGGRMLVRIIEGMTGDLRRAPKDEENLIAAVAAGWVTALDNLSHMTPDLSDAMCCIVTGAENVKRALFTDGDVFRARYRRPLLLTGIDVGVIRPDLAERLLPLRLERPKVRRTEAELWTEYAEVLPVVLGSLLDLAVKVRAVEVETPTDLRMADFAHLCAQLDAATGFGALAAYRAALDDLNDDVIEGDLLAQTVLRHAADLEPGTTQRMTSTEWLHCLSQLYTGEEFRPLPKGWPTTGKVLSDRLKRLQPTLAARGVLIDSGRTYEGRYLEMTRAPATEGHHHHHH | not soluble
MSLKTSKTSTVVLIVPTTWSPFFAELVYRMQVELDRIGFKMILANSHADPDEEEEILRMASLNQVTGVITMSYSNIYNFINIGKKLNLVSIERFISEDVPLITSDNYGGGQLAAEKLITFGSKRFLLLRRKTNHYNATDKRTEGFLHIMKENNLPVDIFEASLKENYIEEFIHYLKTHFSGDVLTFDGIFGVTDEYAVIAKQVLFELNPSYLNKVNIIGFDGSKSQEKGSYQIASIRQPVEAMVKAAVKVLKKLIDGEEVPSHYSKVFDVSFVEPERLVEGHHHHHH | soluble
MSLKVAKDLVVSLAYQVRTEDGVLVDESPVSAPLDYLHGHGSLISGLETALEGHEVGDKFDVAVGANDAYGQYDENLVQRVPKDVFMGVDELQVGMRFLAETDQGPVPVEITAVEDDHVVVDGNHMLAGQNLKFNVEVVAIREATEEELAHGHVHGAHDHHHDHDHDGCCGGHGHDHGHEHGGEGCCGGKGNGGCGCEGGSHHHHHH | soluble
MSLKVAVVGLGDISHVHIHAIQNSTKAQLVAVCDENEKLSQQVPHVNYYNDLQTMIDSETLDCVHICLPHYLHVSATTTCVENGINVLQEKPLAVNAKEGLELVKLQRKYPNIKIGICFQNRYNATFQALQEIVESKTYGEVIGVKGLVTWFRPESYYTDKPWRGQMATAGGGVLINQSIHTLDLIQLLCGKIASIKGTVSQLLDYDIEVEDTASAHIKFENKANGMFFATNANFGNSNVELQIIFENEKFTIKDNILTRFNEAGEKIKIAEDEKMTGNKTYYGPSHGKLINAFYDCINNDSNNYVHPKDALTSIAMIDAIQKSSESLKTVQFDSEGHHHHHH | soluble
MSLKVLKKEELVPTLYQLFSQAKEKVLVVSAWIRGSIFKELLSLLPENVQLEVIVRAGNLSDMDITDEAFFRETKKKGGRILLNPKLHSKFLIIDERYAVVGSSNITFMGLYPEGNVETNVLIEEKEKVKELLEFYENLKEESVDYTDVVGYAVSSRSPKEAEIVLLEDLKEQTYLGIQGEEFFLCRLSNVSGKKETREDALNRILSSEVWDWKVAALFAHLYERPEIKTGRLEILGEYEKERNLFKTPTKSVESGSLVKKLEPESEELKRILFKNHSGYDMKYPTYLGKLYNTEVKAYLDMDKVLGMHMAVLGTTGSGKTTFVKKILKNFKESEVIIFDIYGEYAQELGAKEVIVENVLMPISVEDVKDYLKEAGSTLEERSTEEKEFFSVFRRALKPDIEATELKEKSFKEIYEEAVKNLHSLHLKQDAQSVYEHLERTYSRGALEQQPKVLKEVVDFLNSEERVKVFNFKEVDITETKVNLTGLILKEIFIRAKKDRKPRLIVIEEAQNVAPERGTGDVPSGKENVAFVYAKKIAMEGRKLNLGLIAITQRPANLSKFILSQLNTQVIFKLITKNDLDAVSPFFEYSKEDIFRLLPFLKPGTAFVSGLAVPFSFLFQMEEIPYYEGHHHHHH | not soluble
